Test results published in article doi:10.1101/2020.10.30.342212.
Like-named read-outs stand apart in the source and are kept apart here.

Experiments:
[1] = target: PrgL_(32-208)-His, soluble C-terminal NTF2-like domain of PrgL (Enterococcus faecalis (plasmid pCF10)); experiment: SEC-MALS
[2] = target: PrgL_(32-208)-His, soluble C-terminal NTF2-like domain of PrgL (Enterococcus faecalis (plasmid pCF10)); experiment: SEC-MALS; remark: listed apart in the source
[3] = target: full-length PrgL-GFP (Enterococcus faecalis (plasmid pCF10)); experiment: SEC
[4] = target: full-length PrgL-His (Enterococcus faecalis (plasmid pCF10)); experiment: cross-linking

PrgL_(32-208)-His, soluble C-terminal NTF2-like domain of PrgL (domain or fragment)
stoichiometry N [1]: 2
stoichiometry N [2]: 10 to 12

full-length PrgL-GFP (natural protein)
stoichiometry N [3]: 2

full-length PrgL-His (natural protein)
stoichiometry N [4]: 2
